What was measured:
[1] = molecular target: T1, Biotin-HaloTag[3-19] (I2R)-4xGly/Ser-VS-HiBiT (N-terminal biotin); test: BLI; biotin-peptide on streptavidin probe; PBST, 25 C
T1 construct: Synthetic peptide; also called HaloTag[3-19](12R)-4×Gly/Ser-VS-HiBiT; DualTag peptide
T1 peptide: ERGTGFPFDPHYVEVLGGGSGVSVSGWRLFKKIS

[2] = molecular target: Aga2-15xGly/Ser-EGFP-4xGly/Ser-HaloTag[3-19]-4xGly/Ser-…; test: flow cytometry of yeast displaying the tag; reporter bound, washed, then JF549 HaloTag ligand
[3] = molecular target: Aga2-15xGly/Ser-EGFP-4xGly/Ser-HaloTag[3-19]-4xGly/Ser-…; test: as above; remark: listed apart in the source
[4] = molecular target: Aga2-15xGly/Ser-4xGly/Ser-HaloTag[3-19]-4xGly/Ser-VS-HiBiT; test: as above
[5] = molecular target: Aga2-15xGly/Ser-EGFP-4xGly/Ser-HaloTag[3-19]-4xGly/Ser-…; test: as above; remark: listed apart in the source
[6] = molecular target: Aga2-15xGly/Ser-EGFP-4xGly/Ser-HaloTag[3-19]-4xGly/Ser-VS-HiBiT; test: as above

B1: HaloTag[22-297](M2F)-12xGly/Ser-LgBiT-3xGly/Ser-6xHis (other)
chain: MFHYVDVGPRDGTPVLFLHGNPTSSYVWRNIIPHVAPTHRCIAPDLIGMGKSDKPDLGYFFDDHVRFMDAFIEALGLEEVVLVIHDWGSALGFHWAKRNPERVKGIAFMEFIRPIPTWDEWPEFARETFQAFRTTDVGRKLIIDQNVFIEGTLPMGVVRPLTEVEMDHYREPFLNPVDREPLWRFPNELPIAGEPANIVALVEEYMDWLHQSPVPKLLFWGTPGVLIPPAEAARLAKSLPNCKAVDIGPGLNLLQEDNPDLIGSEIARWLSTLEISGGSGGSGGGGSGGMVFTLEDFVGDWEQTAAYNLDQVLEQGGVSSLLQNLAVSVTPIQRIVRSGENALKIDIHVIIPYEGLSADQMAQIEEVFKVVYPVDDHHFKVILPYGTLVIDGVTPNMLNYFGRPYEGIAVFDGKKITVTGTLWNGNKIIDERLITPDGSMLFRVTINSGSGHHHHHH
notes: Purified tandem polypeptide reporter (large split-HaloTag fragment fused to LgBiT); also called Reporter
Kd [1]: 1.61 nM
koff [1]: 8.34e-05 s⁻¹
kon [1]: 51900 M⁻¹ s⁻¹
percent of cells in the JF549+ gate [2]: 44.8%
percent of cells in the JF549+ gate [3]: 44.2%
percent of cells in the JF549+ gate [4]: 48.9%
percent of cells in the JF549+ gate [5]: 6.96%
percent of cells in the JF549+ gate [6]: 46.4%

From patent US20240368565A1 (PROMEGA, published 2024)
